Laboratory results taken from patent publication US20250297026A1 (PETMEDIX, published 2025).
Where a chain is given by its changes, count along the chain named.

T1: canine CD20 (UniProt Q3C2E2 1-297)
T1 chain: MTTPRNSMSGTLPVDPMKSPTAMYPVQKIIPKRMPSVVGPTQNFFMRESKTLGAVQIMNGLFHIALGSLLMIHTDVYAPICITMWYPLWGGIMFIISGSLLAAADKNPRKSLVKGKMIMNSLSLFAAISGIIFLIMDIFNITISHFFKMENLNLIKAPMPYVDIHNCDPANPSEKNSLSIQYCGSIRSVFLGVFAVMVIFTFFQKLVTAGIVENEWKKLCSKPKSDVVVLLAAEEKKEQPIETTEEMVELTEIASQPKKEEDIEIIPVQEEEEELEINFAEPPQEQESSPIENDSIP

T2: canine CD20 (canine, UniProt Q3C2E2 1-297)
T2 chain: T1 chain

B1: PMX003 mAb (antibody, V domains shown)
VH: EVQLVESGGDLVKPGGSLRLSCVASGITFSRYHMSWVRQAPGKGLQWVAYINSGGSSTSYPDAVKGRFTISRDNAKNTLYLQMDSLRAEDTALYYCTTFDYWGQGTLVTVSS
VL: SYVLTQLPSKNVTLKQPAHITCGGDNIGSKSVHWYQQKLGQAPVLIIYYDSRRPTGIPERFSGANSGNTATLTISGALAEDEADYYCQVWDSSANVFGGGTHLTVLG
B2: PMX002 mAb (antibody, V domains shown)
VH: EVQLVESGGDLVKPGGSLRLSCVASGIIFSNYHMSWVRQVPGKGLQWVAYINSGGSTINYADGVKGRFTISRDNAKNSLYLQMNSLRGEDTAVYYCTTYDSWGQGTLVTVSS
VL: B1 VL with R52S, A94V
notes: Fully canine mAb with dog IGGB and dog IGLC5 constant regions; Expressed in CHO cells
B3: PMX004 mAb (antibody, V domains shown)
VH: EVQLVESGGELVKPGGSLRVSCVASGITFSRYHMSWVRQAPGKGLQWVAFINTDRSSPKYADSVKGRFTISRDNAKNTLYLQMNSLRAEDTAIYYCTSFDYWGQGTLVTVSS
VL: B1 VL with R52S
notes: as for B2
B4: PMX070 (antibody, V domains shown)
VH: B1 VH with V2M, I27F, S57P, S59N, P61A, D84N, L93V, F99Y, Y101Q
VL: SYVLTQLPSKSVTLKQPAHITCGGDNIGSKSVHWYQQKLGQAPVLIIYYDSSRPTGIPERFSGANSGNTATLTISGALAEDEADYYCQVWDTSANVFGGGTHLTVL
B5: PMX005 mAb (antibody, V domains shown)
VH: B1 VH with I27F, S57D, T58S, S59D, P61A, D84N, L93V, T98S, F99L
VL: B1 VL with R52S, S92R, A94G
notes: as for B2
B6: PMX115 mAb (antibody, V domains shown)
VH: EMQLVESGGALVKPGGSLRLSCVASGFTFRRYHMSWVRQAPGQGLQWVAYIDSDGSPTSYGDSVKGRFTISRDNAKNTLFLQMNSLRVDDTAVYYCTTLDYWGRGTLVTVSS
VL: B4 VL with L7V, S29G, V44L, S51T, S52R, G76R, T92S, A94G, L106I

How the values were obtained:
canine CD20 [1] = biological target: T1, canine CD20; assay: flow cytometry, cCD20-expressing MDCK II cells; apparent Kd (EC50 of binding)
canine CD20 [2] = biological target: T2, canine CD20; assay: cell-based or functional assay
canine CD20 [3] = biological target: T2, canine CD20; assay: flow cytometry on cCD20-expressing MDCK II cells, 10 ug/ml antibody, FITC anti-canine IgG (FIG. 3A)
Experimental: FIG. 3. Binding assessment of anti-canine CD20 mAbs using flow cytometry. PMX001, PMX002, PMX003, PMX004, PMX005, 1 E4-cIGGB, 4E1-7-clGGB (see A) and PMX006, PMX007, PMX008, PMX009, PMX010, PMX011 (see B) and PMX003, PMX066, PMX067, PMX069, PMX070, PMX071, PMX072, PMX073, PMX074, PMX075, PMX076, PMX077, PMX078, PMX079, PMX080, PMX081, 1E4-cIGGB, 4E1-7-clGGB (see C) were applied to cCD20-expressing MDCK II cells at 10 μg/ml. Rituximab-clGGB (grey shadow) was used as the isotype control and presented in each plot. (D) Affinity determination of PMX003, PMX115 and PMX070 mAbs. Binding of 1:2 serially diluted antibodies to cCD20-expressing MDCK II cells was assessed in a binding assay and the mean values of the fluorophore signal was determined. The plot of mean fluorescence intensity (MFI) versus concentration was used to determine EC50 of binding, using non-linear regression, which is the apparent Kd of antibody binding to cell surface expressed canine CD20.
HEK293 cells or MDCK II cells were stably transfected with a vector encoding the full length of canine CD20 cDNA. Binding of antibodies to these cells were assessed using flow cytometry. […] Cells incubated with anti-canine IgG FITC secondary antibody and without primary anti-canine CD20 antibody, or with isotype control primary antibody, were used as negative controls. The data were acquired on either a Beckman Coulter CytoFLEX or a BD Accuri C6 Plus flow cytometer and analysed using FlowJo software. […] Graphs using mean fluorescence intensity (MFI) values of the FITC channel vs concentration of antibody were plotted in GraphPad Prism (FIG. 3D).

Row | Binder | Kd (canine CD20 [1]) | ADCC EC50 (canine CD20 [2]) | ADCC Maximum killing (%) (canine CD20 [2]) | CDC EC50 (canine CD20 [2]) | CDC Maximum killing (%) (canine CD20 [2]) | binding result (canine CD20 [3])
1 | B1 | 1.7 nM | 0.89 nM | 34% | 25 nM | 90.4% | 
2 | B2 |  |  |  |  |  | binds
3 | B3 |  |  |  |  |  | binds
4 | B4 | 1.1 nM | 0.29 nM | 51% | 11.2 nM | 97.1% | 
5 | B5 |  |  |  |  |  | binds
6 | B6 | 0.8 nM |  |  |  |  | 
